{
  "source": "patent US8507443B2",
  "about": "“Anticancer agent” (The Research Foundation for Microbial Diseases of Osaka …, priority 2005, dated 2013)",
  "key": {"HB-EGF": {"target": "HB-EGF (Homo sapiens, UniProt Q99075)", "sequence (Q99075 63-148)": "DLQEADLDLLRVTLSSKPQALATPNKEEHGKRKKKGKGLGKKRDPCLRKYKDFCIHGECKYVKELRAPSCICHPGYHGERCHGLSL", "experiment": "Inhibition of binding of 125I-labeled diphtheria toxin to HB-EGF"}},
  "data": [
    {"substance": "GST-DT", "values": [
      {"measurement": "toxicity of diphtheria toxin", "setting": "Vero cells", "value": "do not have the toxicity of diphtheria toxin substantially"},
      {"measurement": "activity to inhibit the binding of HB-EGF to EGFR", "setting": "HB-EGF", "value": "inhibit the binding of HB-EGF to EGFR"},
      {"measurement": "inhibition of the binding of 125I-labeled diphtheria toxin to HB-EGF", "setting": "HB-EGF", "value": "in a dose dependent manner"}
    ]}
  ]
}
